Assay [1] has as its target HLA-A2 (heavy chain with β2-microglobulin) (human | ). Kind of assay: radioligand binding; competitive peptide binding assay: test peptide (100,000-fold concentration range, triplicate) displaces a radiolabeled peptide from HLA-A2 (refolded with […]); MHC-peptide complexes captured on plates coated with antibody W6/32; IC50 taken as a reasonable approximation of the dissociation constant. As to conditions: both partners purified.

Assay [2] deals with HLA-A2 (heavy chain with β2-microglobulin) (human | , Heavy-chain limits are not given; taken from the longest deposited entity of this paper (mature 1-276, A*02:01). Bound peptide not included: the test peptide is the partner, and the affinity-assay c). The description is as above. Particulars: both partners purified.

Square brackets hold non-standard residues; d marks the D form. Ends that are not written are not given here. pS = N[C@@H](COP(=O)(O)O)C(=O)O

B1: RQIp, phosphopeptide RQIpSQDVKL derived from adenosine monophosphate deaminase 2 (AMPD2) (peptide)
peptide: RQI[pS]QDVKL
notes: stretch of adenosine monophosphate deaminase 2 (AMPD2); source: synthetic peptide
Molecule B1 returned a Kd in assay [1] of 25.5 nM.

B2: RQA_Vnp, unmodified peptide RQASIELPSMAV derived from Lymphocyte Specific Protein 1 (LSP-1) (peptide)
peptide: RQASIELPSMAV
notes: stretch of Lymphocyte Specific Protein 1 (LSP-1); source: synthetic peptide
In assay [2], B2 registered a dissociation constant Kd of 26 nM.

B3: RQInp, unmodified peptide RQISQDVKL derived from adenosine monophosphate deaminase 2 (AMPD2) (peptide)
peptide: RQISQDVKL
notes: stretch of adenosine monophosphate deaminase 2 (AMPD2); also called non-phosphorylated RQI; source: synthetic peptide
Turning to B3, the Kd in assay [2] came to 1920 nM.

The values above are taken from paper PMC5589570, “The antigenic identity of human class I MHC phosphopeptides is critically dependent upon phosphorylation status” (Oncotarget, 2017).
